Laboratory results published in paper PMC9737693, “Efficient Production of Fc Fusion Proteins in the Cytoplasm of Escherichia coli: Dissecting and Mitigating Redox Heterogeneity” (International Journal of Molecular Sciences, 2022).

Target: the molecule itself
Assay: non-reducing SDS-PAGE; purified proteins, non-reduced and trapped with 25 mM NEM at room temperature for 10 min, SDS-PAGE, Coomassie Blue R-250; dimer seen as a covalently (disulfide) linked band

B1: IgG1 CH2 domain with the hinge region (T106-A222) (domain or fragment, human, UniProt P01857 106-222, looked up)
chain: THTCPPCPAPELLGGPSVFLFPPKPKDTLMISRTPEVTCVVVDVSHEDPEVKFNWYVDGVEVHNAKTKPREEQYNSTYRVVSVLTVLHQDWLNGKEYKCKVSNKALPAPIEKTISKA
notes: human IgG1 hinge region and CH2 domain, residues T106-A222 of immunoglobulin heavy constant gamma 1, amplified from pAAT44; The dimer is told only for the protein made in the presence of CyDisCo (intermolecular hinge disulfide); also called IgG1 CH2 domain with hinge; hinge region fused to the CH2 domain; source: E. coli BL21(DE3) cytoplasm with CyDisCo (Erv1p, PDI), purified (cobalt IMAC)
B1: binds.
